Laboratory results taken from US20080311122A1, “Antagonists of Hmgb1 and/or Rage and Methods of Use Thereof” (Medimmune, LLC, priority 2005, published 2008).
“Also recorded” adds a separate entry of the source.

Assays:
[1] = Isoelectric focusing gel electrophoresis; type: physicochemical
Description: Isoelectric Focusing Gel Electrophoresis: Isoelectric points were determined using a Pharmacia Biotech Multiphor 2 electrophoresis system with a multi temp 3 refrigerated bath recirculation unit and an EPS 3501 XL power supply. Pre-cast ampholine gels (Amersham Biosciences, pI range 2.5-10) were loaded with 5 μg of protein. Broad range pI marker standards (Amersham, pI range 3-10, 8 μL) were used to determine relative pI for the Mabs. Electrophoresis was performed at 1500 V, 50 mA for 105 minutes. The gel was fixed using a Sigma fixing solution (5×) diluted with purified water to 1×. Staining was performed overnight at room temperature using Simply Blue stain (Invitrogen). Destaining was carried out with a solution that consisted of 25% ethanol, 8% acetic acid and 67% purified water. Isoelectric points were determined using a Bio-Rad Densitometer relative to calibration curves of the standards.

[2] = Differential scanning calorimetry; type: physicochemical; design: unit: °C; conditions: in °C (unit assumed)
Description: Differential Scanning Calorimetry: Thermal melting temperatures (Tm) were measured with a VP-DSC (MicroCal, LLC) using a scan rate of 1.0° C./min and a temperature range of 25-120° C. A filter period of 8 seconds was used along with a 5 minute pre-scan thermostating. Samples were prepared by dialysis into 25 mM Histidine-HCl, pH 6 using Pierce dialysis cups (3.5 kD). Average Mab concentrations were 50 μg/mL as determined by A280. Melting temperatures were determined following manufacturer procedures using Origin software supplied with the system. Briefly, multiple baselines were run with buffer in both the sample and reference cell to establish thermal equilibrium. After the baseline was subtracted from the sample thermogram, the data were concentration normalized and fitted using the deconvolution function.

[3] = target: T1, HMG2 (Bos taurus, UniProt P40673); experiment: Binding to HMG1 vs. HMG2 ELISA; design: species or system calf; conditions: immobilized antigen
T1 construct: from tissue; host or cells: calf thymus (as read from the sentence)
T1 sequence (P40673 1-209): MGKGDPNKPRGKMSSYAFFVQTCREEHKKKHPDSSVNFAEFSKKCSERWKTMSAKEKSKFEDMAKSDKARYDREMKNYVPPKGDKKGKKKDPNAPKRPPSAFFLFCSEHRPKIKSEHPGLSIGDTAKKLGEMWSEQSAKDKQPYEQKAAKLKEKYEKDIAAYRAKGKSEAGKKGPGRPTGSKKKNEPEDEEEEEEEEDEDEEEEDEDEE
Description: Binding to HMG1 vs. HMG2: Ultra high-binding ELISA plates (ThermoLab systems, #3855) were coated with either 5 ug/mL of Calf thymus HMGB1 or HMBG2 diluted in 10 mM Phosphate buffered saline (PBS), pH 7.2 and incubate overnight at 4 degrees. The plates were washed twice with Ca and Mg free PBS and 100 microliters of anti-HMGB1 antibody diluted in 10 mM PBS, pH 7.2+1% bovine serum albumin (BSA) to a final concentration of 10 ug/mL was added to each well and the plates were incubated 1 hour at room temperature. The wells were washed three times with 100 μl of PBS, pH 7.2. HRP labeled goat-anti-human IgG Kappa-chain (KPL, #14-10-10) and goat-anti-human IgG Lambda-chain (KPL, #14-10-11) were diluted in 10 mM PBS+1% BSA 1:1000 and 100 μl were added to each well and incubated for 1 hour at room temperature. The wells were then washed three times with 100 μl of PBS, pH 7.2. OPD substrate (Pierce chemical company, #34006) was prepared following the manufacturers instructions and 100 μl of prepared substrate was added to each well and the plates incubated at room temperature in the dark for 20-30 minutes. The reaction was stopped with the addition of 100 μl of 2M H2SO4, and the plates read on a plate reader at a wavelength of 490 nm.

[4] = tested on: HMG1 (recombinant, native; immobilized, soluble); experiment: Direct and sandwich (capture) ELISA comparing forms of HMG1; type: binding; conditions: two ELISA formats, rHMG1
Description: Direct ELISA (immobilized HMG1): Individual wells of a 96-well immunoplate (EIA/RIA plate, High binding, Costar) were coated with HMGB-1 at 5 μg/ml in PBS at 4° C. overnight. The plate was then blocked with 4% milk powder dissolved in PBS at 37° C. for 1 hour. The blocking solution was removed and replaced with human anti-HMG1 antibodies at various concentrations (see FIG. 4A). The plate was then washed (ELX-405 Plate washer, BIO-TEK) and secondary antibody (anti-human IgG-HRP, PIERCE) was added at a final concentration of 1:125,000 at 37° C. for 1 hour. HRP activity was detected with Sureblue HRP substrate (KPL). Plates were read at 450 nm using a Kinetic Microplate Reader (Molecular Devices).
Sandwich ELISA (soluble HMG1): Immunoplates (EIA/RIA plate, High binding, Costar) were coated with anti human IgG Fc at 10 μg/ml in PBS (pH 7.2) and incubated at 4° C. overnight. The coating reagent was removed and the plates were rinsed briefly with PBS. The plates were then blocked with 4% milk for 1 hour at 37° C. and rinsed with PBS. The anti-HMG1 antibodies were diluted in 4% milk. For serial dilutions, the antibodies were used at a starting concentration of 20 μg/ml. The diluted anti-HMG1 antibodies were then added into plate and incubated for 1 hr at 37° C. The plate was then washed 10 times with PBST (PBS/0.1% tween 20) and incubate with antigen (HMGB1, 2 μg/ml; or 0.7 μg/ml for native HMGB1) in 4% milk and incubated at 37° C. for 1 h. The plate was then wash 10 times and incubated with mouse anti-HMGB1, 1 μg/ml in 4% milk at 37° C. for 1 h. The plate was washed 10 times and incubated with anti-mouse IgG-HRP at 1:1000 at 37° C. for 1 h. The plate was then washed and developed. HRP activity was detected with Sureblue HRP substrate (KPL). Plates were read at 450 nm using a Kinetic Microplate Reader (Molecular Devices).

[5] = target: T2, recombinant HMG1 binding to RAGE-Fc (Homo sapiens, UniProt P09429); experiment: HMG1 binding to RAGE-Ig by ELISA; conditions: at the concentrations tested
T2 construct: made in house; host or cells: E. coli (HMG1)
T2 sequence (P09429 1-215): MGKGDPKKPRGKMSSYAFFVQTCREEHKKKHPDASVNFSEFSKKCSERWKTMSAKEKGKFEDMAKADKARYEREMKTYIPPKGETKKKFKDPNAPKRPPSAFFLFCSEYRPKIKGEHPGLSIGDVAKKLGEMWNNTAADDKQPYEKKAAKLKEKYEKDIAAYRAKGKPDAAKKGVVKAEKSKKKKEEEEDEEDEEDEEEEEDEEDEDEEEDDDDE
Description: HMG1 binding to RAGE-Ig by ELISA: 50 μl/well of RAGE-Fc fusion protein at 5 μg/ml in PBS was added to each well of an ELISA plate and incubated overnight at 4° C. The plate was then blocked with 200 μl of 5% milk at 37° C. for 1 hr and washed 3× with PBS/Tween. 50 μl/well of diluted HMGB1 solution. For dose curves, HMGB1 concentrations started at 4 ug/ml in PBS. For antibody blocking the HMGB1 was preincubated in another plate with human anti-HMG1 antibodies or buffer, then transferred to the RAGE-coated plate. The plates were then incubated at room temperature for 2 hours and washed 3×. To detect any HMG1 bound to the immobilized RAGE-Fc a mixture of biotinylated mouse anti-HMG1 mAbs (10D4, 4H11, 3E10 and 5C12) each at 1 ug/ml, total Ab: 4 ug/ml, were added to each well and the plate was incubated for 1 hour at room temperature. The plate was then washed and Strepavidin-HPR was added to each well and incubated 15 min. The plate was then washed 3× and blotted dry. 100 μl of TMB developing agent was added and the plate read at 650 nm. Values were calculated as percent of inhibition with HMG1 alone equal to 0% inhibition. The data in FIG. 9 and summarized in Table 1 represent the average of two separate experiments.

B1: G12: human anti-HMG1 antibody; VL/VH aa SEQ ID NO: 38/40 (antibody, listed as Homo sapiens, V domains shown)
VH: EVQLLESGGGLVQPGGSLRLSCAASGFTFSYYMMTWVRQAPGKGLEWVSSISPSGGYTIYADSAKGRFTISRDNSKNTLYLQMNSLRAEDTAVYYCARALSTGSFWDYWGQGTLVTVSS
VL: AQDIQMTQSPGTLSLSPGERATLSCRASESLTSTYVAWYQHKPGQAPRLLIHGGSTRATGIPVRFSGSGSGTDFTLTIATLEPEDFAVYYCQQYGSSPYTFGQGTKLEIK
[1]
  PI: 8.6
[2]
  Tm: 78.8
[3]
  relative binding to HMG1 and HMG2: specific for HMG1
[4]
  binding to immobilized versus soluble HMG1: little difference in binding to immobilized or soluble HMG1
[5]
  block of recombinant HMG1 binding to RAGE: did not inhibit RAGE binding; also recorded: do not at the concentrations tested

B2: G34: human anti-HMG1 antibody; VL/VH aa SEQ ID NO: 50/52 (antibody, listed as Homo sapiens, V domains shown)
VH: EVQLLESGGGLVQPGGSLRLSCAASGFTFSHYMMGWVRQAPGKGLEWVSRISPSGGGTVYADSVKGRFTISRDNSKNTLYLQMNSLRAEDTAVYYCARGGNWNYISYYYYYLDVWGKGTTVTVSS
VL: AQDIQMTQSPSSLSASVGDRVAITCRASQSIDTYLNWYQQKPGKAPKLLIYAASKLEDGVPSRFSGSGTGTDFTLTIRSLQPEDFASYFCQQSYSSPGITFGPGTKVEIK
[1]
  PI: ~8.7
[2]
  Tm: ~75
[3]
  relative binding to HMG1 and HMG2: specific for HMG1
[4]
  binding to immobilized versus soluble HMG1: bind better to soluble rHMG1
[5]
  block of recombinant HMG1 binding to RAGE: do not at the concentrations tested

B3: S14: human anti-HMG1 antibody; VL/VH aa SEQ ID NO: 66/68 (antibody, listed as Homo sapiens, V domains shown)
VH: EVQLLESGGGLVQPGGSLRLSCAASGFTFSWYETGWVRQAPGKGLEWVSGISPSGGYTQYADSVKGRFTISRDNSKNTLYLQMNSLRAEDTAVYYCARSGVGATKIFDYWGQGTLVTVSS
VL: AQDIQMTQSPSSLSASVGDRVTIICRANERINTYLNWYQQKPGKAPKLLISGTSSLESGVPSRFSGSGSGTEFTLSISSLQPEDFASYYCQQSYSSPYTFGQGTNLEIR
[1]
  PI: 8.62
[2]
  Tm: 70.7
[3]
  relative binding to HMG1 and HMG2: specific for HMG1
[5]
  block of recombinant HMG1 binding to RAGE: did not inhibit RAGE binding; also recorded: do not at the concentrations tested

B4: G16: human anti-HMG1 antibody; VL/VH aa SEQ ID NO: 42/44 (antibody, listed as Homo sapiens, V domains shown)
VH: EVQLLESGGGLVQPGGSLRLSCAASGFTFSWYKMTWVRQAPGKGLEWVSSISPSGGFTSYADSVKGRFTISRDNSKNTLYLQMNSLRAEDTAVYYCARDLDIRHAFDIWGQGTMVTVSS
VL: AQDIQMTQSPGTLSLSPGESGTLSCRASESVSSRHFAWYQQKPGQAPRLLIYGASSRPTGIPDRFSGSGSGTDFTLTLSRLEPEDFAVYFCQYYGSSPYTFGGGTKVEMK
[4]
  binding to immobilized versus soluble HMG1: bound slightly better to immobilized rHMG1
[5]
  block of recombinant HMG1 binding to RAGE: did not inhibit RAGE binding; also recorded: do not at the concentrations tested

B5: G35: human anti-HMG1 antibody; VL/VH aa SEQ ID NO: 54/56 (antibody, listed as Homo sapiens, V domains shown)
VH: EVQLLESGGGLVQPGGSLRLSCAASGFTFSWYKMVWVRQAPGKGLEWVSSIVPSGGITIYADSVKGRFTISRDNSKNTLYLQMNSLRAEDTAVYYCARVQQWLGRPYFDYWGQGTLVTVSS
VL: AQDIQMTQSPLSLPVTPGEPASISCRSSQSLLHGNGYNYLDWYLQRPGQSPQLLIYSGSNRASGVPDRFSGSGSGTDFTLKISRVEAEDVGVYYCMQSLQSRTFGQGTKVEIK
[1]
  PI: 8.61
[2]
  Tm: 69
[3]
  relative binding to HMG1 and HMG2: specific for HMG1
